Laboratory results published in US20150329642A1.

Legend:
[1] = molecular target: human c-Met, membrane-bound on cells (human) (UniProt P08581); assay: flow cytometry on A431 cells (PE goat anti-human IgG); top panel
cMetECDHis (human) [2] = molecular target: cMetECDHis (human) (UniProt P08581); assay: cross-block ELISA; competitor 008
cMetSEMA-567His8 (human) = cMetSEMA-567His8 (human) (UniProt P08581); assay: TR-FRET; displacement of AlexaFluor-647-HGF from cMetSEMA-567His8
cMetECDHis (human) [3] = molecular target: cMetECDHis (human) (UniProt P08581); assay: cross-block ELISA; competitor 022
cMetECDHis (human) [4] = molecular target: cMetECDHis (human) (UniProt P08581); assay: cross-block ELISA; competitor 062
cMetECDHis (human) [5] = molecular target: cMetECDHis (human) (UniProt P08581); assay: cross-block ELISA; competitor 101
cMetECDHis (human) [6] = molecular target: cMetECDHis (human) (UniProt P08581); assay: cross-block ELISA; competitor G11-HZ
cMetECDHis (human) [7] = molecular target: cMetECDHis (human) (UniProt P08581); assay: cross-block ELISA; competitor 035
[8] = molecular target: recombinant human c-Met extracellular domain (R&D systems) (human) (UniProt P08581); assay: competition ELISA, residual Europium-HGF signal at 615 nm at the lower plateau of the fit; sheet prints no competing mAb ~66000, no HGF-Europium ~600; upper panel
cMetECDHis (human) [9] = molecular target: cMetECDHis (human) (UniProt P08581); assay: cross-block ELISA; competitor 068
cMetECDHis (human) [10] = molecular target: cMetECDHis (human) (UniProt P08581); assay: cross-block ELISA; competitor 045
cMetECDHis (human) [11] = molecular target: cMetECDHis (human) (UniProt P08581); assay: cross-block ELISA; competitor 181
cMetECDHis (human) [12] = molecular target: cMetECDHis (human) (UniProt P08581); assay: cross-block ELISA; competitor 006
cMetECDHis (human) [13] = molecular target: cMetECDHis (human) (UniProt P08581); assay: BLI (Octet); antibody captured, cMetECDHis in solution
cMetECDHis (human) [14] = molecular target: cMetECDHis (human) (UniProt P08581); assay: cross-block ELISA; competitor 005
[15] = molecular target: recombinant human c-Met extracellular domain (R&D systems) (human) (UniProt P08581); assay: competition ELISA on coated recombinant c-Met extracellular domain; blocked ligand Europium-conjugated HGF; column headed EC50 on the sheet, called IC50 in paragraph 270; upper panel
cMetECDHis (human) [16] = molecular target: cMetECDHis (human) (UniProt P08581); assay: cross-block ELISA; competitor 069
cMetECDHis (human) [17] = molecular target: cMetECDHis (human) (UniProt P08581); assay: cross-block ELISA; competitor 064
cMetECDHis (human) [18] = molecular target: cMetECDHis (human) (UniProt P08581); assay: cross-block ELISA; competitor 098
cMetECDHis (human) [19] = molecular target: cMetECDHis (human) (UniProt P08581); assay: cross-block ELISA; competitor 5D5
cMetECDHis (human) [20] = molecular target: cMetECDHis (human) (UniProt P08581); assay: cross-block ELISA; competitor 058
cMetECDHis (human) [21] = molecular target: cMetECDHis (human) (UniProt P08581); assay: cross-block ELISA; competitor 024

IgG4-5D5 (antibody)
EC50 [1]: 0.966 nM

IgG1-5D5 (antibody)
residual binding, % of no competitor (cMetECDHis (human) [2]): 90.2% | % inhibition (cMetSEMA-567His8 (human)): 95% | IC50 (cMetSEMA-567His8 (human)): 0.2 µg/mL | residual binding, % of no competitor (cMetECDHis (human) [3]): 12.4% | residual binding, % of no competitor (cMetECDHis (human) [4]): 97.6% | residual binding, % of no competitor (cMetECDHis (human) [5]): 97.9% | residual binding, % of no competitor (cMetECDHis (human) [6]): 97.3% | residual binding, % of no competitor (cMetECDHis (human) [7]): 98.1% | Bottom [8]: 6350 RFU | residual binding, % of no competitor (cMetECDHis (human) [9]): 97.8% | residual binding, % of no competitor (cMetECDHis (human) [10]): 83.9% | residual binding, % of no competitor (cMetECDHis (human) [11]): 103% | residual binding, % of no competitor (cMetECDHis (human) [12]): 58.8% | Kd (cMetECDHis (human) [13]): 5.86 nM | koff (cMetECDHis (human) [13]): 0.00125 s⁻¹ | kon (cMetECDHis (human) [13]): 214000 M⁻¹ s⁻¹ | residual binding, % of no competitor (cMetECDHis (human) [14]): 42.3% | IC50 [15]: 0.0244 µg/mL | residual binding, % of no competitor (cMetECDHis (human) [16]): 99.6% | residual binding, % of no competitor (cMetECDHis (human) [17]): 97.1% | residual binding, % of no competitor (cMetECDHis (human) [18]): 97.6% | EC50 [1]: 0.531 nM | residual binding, % of no competitor (cMetECDHis (human) [19]): 4.1% | residual binding, % of no competitor (cMetECDHis (human) [20]): 6.6% | residual binding, % of no competitor (cMetECDHis (human) [21]): 94.2%
